Results on 2 molecules are retold here after patent US20060257904, “Agglomeration protein cascades, compositions and methods regarding the same” (Q-RNA, Inc., published 2006).

For data set [1], the target named is T1, hrPrP23-231 (pEHPrP23-231) (Homo sapiens, UniProt P04156 P04156:23-231). Briefly: EMSA. Particulars: tags: untagged; E. coli BL21(DE3) pLysS; label: 32P internal.
Another data set has as its target Tau23 (0N3R) (UniProt P10636-2 P10636-2:1-352). Briefly: EMSA; 125 ng RNA, 1 ug Tau, protection buffer pH 7.4. As to conditions: tags: 6-His; label: 32P internal. (In general: A gel shift assay detects complexes by their altered migration in electrophoresis.)
In data set [2] the target is hrPrP23-144 (N-terminal fragment) (Homo sapiens, UniProt P04156 P04156:23-144). Briefly: filter; 20 nM protein, Buffer B plus tRNA. As to conditions: tags: GST fusion removed by thrombin; label: 32P internal.
Another data set deals with BSA (UniProt P02769 P02769:25-607). Briefly: filter; background; 20 nM protein, 2 nM RNA, 10 ng/ul tRNA. As to conditions: tags: Ambion; label: 32P internal.
The target in the next data set is lysozyme (UniProt P00698 P00698:19-147). Described as above. As to conditions: label: 32P internal.
Data set [3] addresses hrPrP90-231 (C-terminal fragment) (Homo sapiens, UniProt P04156 P04156:90-231). Briefly: filter. Particulars: tags: GST fusion removed by thrombin; label: 32P internal.
For a further data set, the target named is Tau441 (2N4R) (UniProt P10636-8 P10636-8:1-441). Briefly: EMSA; 125 ng RNA, 1 ug Tau; affinity differs from Tau23. As to conditions: tags: no His tag; rPeptide; label: 32P internal.
In data set [4] the target is T1, hrPrP23-231 (pEHPrP23-231). Briefly: EMSA; 55 nM hrPrP, 10% BCS plus tRNA, urea gel. As to conditions: tags: untagged; E. coli BL21(DE3) pLysS; label: 32P internal.

B1: RQ11+12 (ssRNA)
RNA: GGGGUUUCCAACCGGAAUUUGAGGGAUGCCUAGGCAUCCCCCGUGCGUCCCUUUACGAGGGAUUGUCGACUCUAGUCGACGUCUGGGCGAAAAAUGUACGAGAGGACCUUUUCGGUACAGACGGUACCUGAGGGUAUGCCUAGGCAUCCCCCGCGCCGGUUUCGGACCUCCAGUGCGUGUUACCGCACUGUCGACCC
For B1, the binding result is “binds” in data set [1]; “binds” with Tau23 (0N3R); “binds” in data set [2]; “no binding” with BSA; “no binding” with lysozyme; “no binding” in data set [3]. Further, in the data set with Tau441 (2N4R), the binding result is reported as “binds”.

B2: MNV:AP1 (PrP-Amp) (ssRNA)
RNA: GGGUUCAUAGCCUAUUCGGCUUCGCGCAUGGGAAUUUGAGGGACGAUGGGGAAGUGGGAGCGCGUUUUAAAGGACCUUUUUCCCUCGCGUAGCUAGCUACGCGAGGUGACCCCCCGAAGGGGGGUGCCCC
As to B2, the binding result in data set [4] is on record as “binds”.
